Laboratory results from US20220213196A1 (GRITSTONE BIO, published 2022).
Numbering of substitutions follows the chain as printed.

B1: scFv G8-P2C11 (scFv, V domains shown)
VH: QVQLVQSGAEVKKPGASVKVSCKASGYTFTSYAMNWVRQAPGQGLEWMGWINPNSGGTNYAQKFQGRVTMTRDTSTSTVYMELSSLRSEDTAVYYCARDPFWSGHYYYYGMDVWGQGTTVTVSS
VL: not shown
B2: scFv G8-P1A06 (scFv, V domains shown)
VH: QVQLVQSGAEVKKPGASVKVSCKASGYTFTNYYMHWVRQAPGQGLEWMGWMNPIGGGTGYAQKFQGRVTMTRDTSTSTVYMELSSLRSEDTAVYYCARVYDFWSVLSGFDIWGQGTLVTVSS
VL: DIQMTQSPSSLSASVGDRVTITCRASQAISNSLAWYQQKPGKAPKLLIYAASTLQSGVPSRFSGSGSGTDFTLTISSLQPEDFATYYCGQSYSTPPTFGQGTKLEIK
B3: scFv R3G8-P2E04 (scFv, V domains shown)
VH: QVQLVQSGAEVKKPGSSVKVSCKASGGTFSSYGVSWVRQAPGQGLEWMGWISPYSGNTDYAQKFQGRVTITADESTSTAYMELSSLRSEDTAVYYCARGLYYMDVWGKGTTVTVSS
VL: B2 VL with A28S, N31S, S32W, A50D, T53N, Q55E, S56T, G89Q, P96L, Q100G
B4: scFv G8-P1A04 (scFv, V domains shown)
VH: QVQLVQSGAEVKKPGASVKVSCKASGYPFIGQYLHWVRQAPGQGLEWMGIINPSGDSATYAQKFQGRVTMTRDTSTSTVYMELSSLRSEDTAVYYCARDLSYYYGMDVWGQGTTVTVSS
VL: DIQMTQSPSSLSASVGDRVTITCWASQGISSYLAWYQQKPGKAPKLLIYAASSLQSGVPSRFSGSGSGTDFTLTISSLQPEDFATYYCQQSYNTPWTFGPGTKVDIK
B5: scFv R3G8-P4F05 (scFv, V domains shown)
VH: QVQLVQSGAEVKKPGASVKVSCKASGYTFSNMYLHWVRQAPGQGLEWMGWINPNTGDTNYAQTFQGRVTMTRDTSTSTVYMELSSLRSEDTAVYYCARGLYGDYFLYYGMDVWGQGTKVTVSS
VL: B2 VL with A28G, S32Y, G89Q, P96L, Q100G, L104V
B6: scFv R3G8-P2C10 (scFv, V domains shown)
VH: QVQLVQSGAEVKKPGASVKVSCKASGYTFTSYYMHWVRQAPGQGLEWMGWINPYSGGTNYAQKFQGRVTMTRDTSTSTVYMELSSLRSEDTAVYYCAKGGIYYGSGSYPSWGQGTLVTVSS
VL: B2 VL with A28D, I29V, N31T, S32W, T53S, G89Q, Y92H, P96Q, L104V
B7: scFv G8-P1D02 (scFv, V domains shown)
VH: EVQLLESGGGLVQPGGSLRLSCAASGFTFSSYWMSWVRQAPGKGLEWVSSISGRGDNTYYADSVKGRFTISRDNSKNTLYLQMNSLRAEDTAVYYCARASGSGYYYYYGMDVWGQGTTVTVSS
VL: B4 VL with W24Q, G28D, S31N, A34N, N93S, T94A, W96Y, P100G, D105E
B8: scFv R3G8-P5C03 (scFv, V domains shown)
VH: QVQLVQSGAEVKKPGASVKVSCKASGYTFTSYYMHWVRQAPGQGLEWMGWMNPNSGNTGYAQKFQGRVTMTRDTSTSTVYMELSSLRSEDTAVYYCARGLLGFGEFLTYGMDVWGQGTLVTVSS
VL: B2 VL with A28G, S32W, G89Q, S91T, P96W
B9: scFv G8-P1C11 (scFv, V domains shown)
VH: QVQLVQSGAEVKKPGASVKVSCKASGGTLSSYPINWVRQAPGQGLEWMGWISTYSGHADYAQKLQGRVTMTRDTSTSTVYMELSSLRSEDTAVYYCARSYDYGDYLNFDYWGQGTLVTVSS
VL: B4 VL with W24Q, G28D, S31N, A34N, N93S, T94I, W96P, P100G
B10: scFv G8-P1B03 (scFv, V domains shown)
VH: EVQLLESGGGLVQPGGSLRLSCAASGFTFSDYYMSWVRQAPGKGLEWVSGINWNGGSTGYADSVKGRFTISRDNSKNTLYLQMNSLRAEDTAVYYCARVEQGYDIYYYYYMDVWGKGTTVTVSS
VL: B4 VL with W24R, G28S, A34N, A50K, Q55E, N93S, T94A, W96Y
B11: scFv G8-P2E06 (scFv, V domains shown)
VH: QVQLVQSGAEVKKPGASVKVSCKASGYTLTTYYMHWVRQAPGQGLEWMGWINPNSGGTNYAQKFQGRVTMTRDTSTSTVYMELSSLRSEDTAVYYCARAVYYDFWSGPFDYWGQGTLVTVSS
VL: B2 VL with A28G, T53S, G89Q, S91A, Y92N, T94F, P96W
B12: scFv G8-P2B05 (scFv, V domains shown)
VH: EVQLLESGGGLVQPGGSLRLSCAASGFDFSIYSMNWVRQAPGKGLEWVSAISGSGGSTYYADSVKGRFTISRDNSKNTLYLQMNSLRAEDTAVYYCASNGNYYGSGSYYNYWGQGTLVTVSS
VL: DIQMTQSPSSLSASVGDRVTITCRASQSISRWLAWYQQKPGKAPKLLIYAASSLQSGVPSRFSGSGSGTDFTLTISSLQPEDFATYYCQQYSTYPITIGQGTKVEIK
B13: scFv G8-P1A03 (scFv, V domains shown)
VH: QVQLVQSGAEVKKPGASVKVSCKASGGTFSRSAITWVRQAPGQGLEWMGWINPNSGATNYAQKFQGRVTMTRDTSTSTVYMELSSLRSEDTAVYYCARDDYGDYVAYFQHWGQGTLVTVSS
VL: DIQMTQSPSSLSASVGDRVTITCRASQSITSYLNWYQQKPGKAPKLLIYDASNLETGVPSRFSGSGSGTDFTLTISSLQPEDFATYYCQQNYNSVTFGQGTKLEIK
B14: scFv R3G8-P5F02 (scFv, V domains shown)
VH: QVQLVQSGAEVKKPGASVKVSCKASGYTFTGYYIHWVRQAPGQGLEWMGVINPSGGSTTYAQKLQGRVTMTRDTSTSTVYMELSSLRSEDTAVYYCARDRDSSWTYYYYGMDVWGQGTTVTVSS
VL: EIVMTQSPATLSVSPGERATLSCRASQSVGNSLAWYQQKPGQAPRLLIYGASTRATGIPARFSGSGSGTEFTLTISSLQSEDFAVYYCQQYGSSPYTFGQGTKVEIK
B15: scFv R3G8-P5G08 (scFv, V domains shown)
VH: B5 VH with S30T, N31S, M32N, L34M, I51M, T55S, D57N, N59G, T63K, K118T
VL: not shown
B16: scFv G8-P1H08 (scFv, V domains shown)
VH: QVQLVQSGAEVKKPGASVKVSCKASGYTFGNYFMHWVRQAPGQGLEWMGMVNPSGGSETFAQKFQGRVTMTRDTSTSTVYMELSSLRSEDTAVYYCAASTWIQPFDYWGQGTLVTVSS
VL: DIQMTQSPSSLSASVGDRVTITCRASQGINSYLAWYQQKPGKAPKLLIYDASNLETGVPSRFSGSGSGTDFTLTISSLQPEDFATYYCQQHNSYPPTFGQGTKLEIK
B17: scFv G8-P1C01 (scFv, V domains shown)
VH: QVQLVQSGAEVKKPGASVKVSCKASGGTFSSHAISWVRQAPGQGLEWMGVIIPSGGTSYTQKFQGRVTMTRDTSTSTVYMELSSLRSEDTAVYYCARGDYYDSSGYYFPVYFDYWGQGTLVTVSS
VL: B16 VL with G28N, N30Y, S31T, A34N, H91A, S93G, Y94F, P96L, Q100G, L104V
B18: scFv R3G10-P1F06 (scFv, V domains shown)
VH: QVQLVQSGAEVKKPGASVKVSCKASGYTFIGYYMHWVRQAPGQGLEWMGMIGPSDGSTSYAQKFQGRVTMTRDTSTSTVYMELSSLRSEDTAVYYCARDSSGLDPWGQGTLVTVSS
VL: B2 VL with A28S, S32Y, A34N, A50K, T53S, Q55E, G89Q, S93I, T94I, P96Y
B19: scFv R3G10-P1A07 (scFv, V domains shown)
VH: EVQLLESGGGLVKPGGSLRLSCAASGFTFSSYWMSWVRQAPGKGLEWVSGISARSGRTYYADSVKGRFTISRDDSKNTLYLQMNSLKTEDTAVYYCARDQDTIFGVVITWFDPWGQGTLVTVSS
VL: B2 VL with A28G, S32Y, T53S, S56G, G89Q, S91Y, Y92F, S93T, P96Y
B20: scFv R3G10-P1H01 (scFv, V domains shown)
VH: B18 VH with I30T, D99G, S100V, S101G, G102N, P105Y
VL: B2 VL with A28S, S32Y, A34N, T53S, G89H, S91T, P96L, L104V
B21: scFv R3G10-P1H08 (scFv, V domains shown)
VH: QVQLVQSGAEVKKPGASVKVSCKASGVTFSTSAISWVRQAPGQGLEWMGWISPYNGNTDYAQMLQGRVTMTRDTSTSTVYMELSSLRSEDTAVYYCARDAHQYYDFWSGYYSGTYYYGMDVWGQGTTVTVSS
VL: B2 VL with A28G, S32Y, A50S, T53N, G89Q, S91A, T94F, P96W, L104V
B22: scFv R3G10-P1B07 (scFv, V domains shown)
VH: QVQLVQSGAEVKKPGASVKVSCKASGYTFTSYYMHWVRQAPGQGLEWMGIIHPGGGTTSYAQKFQGRVTMTRDTSTSTVYMELSSLRSEDTAVYYCARDKVYGDGFDPWGQGTLVTVSS
VL: B12 VL with Y49F, A50D, S53R, Y91A, S92E, T93A, Y94F, I96Y, I98F
B23: scFv R3G10-P1E12 (scFv, V domains shown)
VH: B18 VH with T28I, I30T, D99E, S100D, S101D, G102S, L103M, P105V, Q108K, L111T
VL: not shown
B24: scFv R3G10-P4E12 (scFv, V domains shown)
VH: B18 VH with I30T, K63R, D99E, S100E, S101D, L103M, P105V, L111T
VL: B16 VL with N30S, S31T, N53S, E55Q, T56S, H91Y, N92Y, P96W, K103R

Target: T1, HLA-A*02:01_… (HLA-PEPTIDE target G8), recombinant soluble complex (human, UniProt P04439 25-297 at identity 0.94); P61769 21-119, enzymatically biotinylated (BirA) for screening and functional assays)
T1 construct: Also crystallised with Fab G8-P1C11
Assay: scFv PPE ELISA

Binder | fold binding to target pHLA over minipool of negative control pHLAs [fold]
B1 | ≥ 3
B2 | ≥ 3
B3 | ≥ 3
B4 | ≥ 3
B5 | ≥ 3
B6 | ≥ 3
B7 | ≥ 3
B8 | ≥ 3
B9 | ≥ 3
B10 | ≥ 3
B11 | ≥ 3
B12 | ≥ 3
B13 | ≥ 3
B14 | ≥ 3
B15 | ≥ 3
B16 | ≥ 3
B17 | ≥ 3

Target: HLA-A*01:01_… (HLA-PEPTIDE target G10), recombinant soluble complex (human, UniProt P04439-2 25-297; P61769 21-119, enzymatically biotinylated (BirA) for screening and functional assays)
Assay: scFv PPE ELISA

Binder | fold binding to target pHLA over minipool of negative control pHLAs [fold]
B18 | ≥ 3
B19 | ≥ 3
B20 | ≥ 3
B21 | ≥ 3
B22 | ≥ 3
B23 | ≥ 3
B24 | ≥ 3
